Legend:
[1] = test system: C2C12 myoblasts; experiment: Dexamethasone-induced atrophy gene expression in C2C12 myoblasts; type: cell-based; conditions: 64 nM peptide together with dexamethasone (25 μM); RT-qPCR
Method: Myoblast C2C12 (myoblast) was dispensed into a 6 well plate, and then cultured in a DMEM medium containing 10% FBS and 1% antibiotics at 37° C. in a 10% CO2 incubator. Thereafter, in order to induce differentiation, the medium was replaced with a differentiation medium containing 2% horse serum, the C2C12 cells were treated with PEP004 and PEP005 at a concentration of 64 nM during the time for induction of differentiation, and formation of myotubes was observed.
After differentiation of myoblasts, the cells were treated with dexamethasone (25 μM), which causes muscle atrophy, and PEP004 and PEP005 simultaneously, and then RNA was extracted from the cells using Trizol. Reverse transcriptase was added to the obtained RNA and reacted to synthesize cDNA, and SYBR Green and primers were added to perform quantitative real-time PCR (RT-qPCR). Expression levels of Atrogin-1 and MuRF1, which are factors involved in muscle atrophy, were measured to determine whether atrophy of differentiated myoblasts was inhibited.

[2] = test system: APP/PS1 Alzheimer's disease mice; experiment: Novel object recognition test in APP/PS1 Alzheimer's disease mice; type: in vivo; conditions: oral for 8 weeks; vs vehicle
Method: To 5-month-old APP/PS1 Alzheimer's disease male mice with amyloid deposition and cognitive and memory disorder in the brain, Amuc_1409 was orally administered to the mice by 5 μg daily 5 days a week for 8 weeks. PEP001 was dissolved in PBS buffer at a concentration of 2.4 μM, and then orally administered to the mice by 150 μL per animal 5 days a week for 8 weeks. To the control group (vehicle), PBS was orally administered in the same volume. In addition, normal mice (Non-Tg) not administered with the novel protein fragments were used as a control group.
In order to test the effect of improving cognitive function in APP/PS1 Alzheimer's disease mice administered with Amuc_1409 and PEP001, a novel object recognition test was performed. When the object seen 24 hours ago and a novel object were provided, the exploration time and the number of explorations for the novel object were measured to test cognition and memory.

[3] = test system: Human skin keratin cell line (HaCaT); experiment: UVB photoaging gene expression in human skin keratinocytes; type: cell-based; conditions: 30 nM; UVB 10 mJ/cm^2; vs control group irradiated with UVB
Method: An experiment was conducted to examine the skin regeneration ability of the peptides of the present invention. Human skin keratin cell line (HaCaT) was cultured in DMEM medium containing 10% fetal bovine serum (FBS) and 1% penicillin-streptomycin at 37° C. and 5% CO2. When the cell density reached 80%, the cells were dispensed into a 6-well plate at 4×10^5 cells per well and cultured for 24 hours. After 24 hours, the cells were treated with Amuc 1409 at a concentration of 30 nM for 1 hour, washed twice with PBS (phosphate buffered saline) after 1 hour, and irradiated with ultraviolet light at 10 mJ/cm^2 using an ultraviolet (UVB) irradiation device (CL-1000 UV crosslinker; UVP, USA). After UV irradiation, the medium was replaced with serum-free medium, and the cells were immediately treated with Amuc_1409 for 8 hours.
In relation to skin wrinkles due to skin aging, in order to examine the expression of MMP-1 and MMP-3 genes, which are collagenase, and Col1a1 and Col3a1 genes, which are collagen synthesis enzymes, RNA was isolated from the cells in each well using Trizol (Invitrogen, USA) and quantified by nanodrop, and then cDNA was synthesized using 1 μg of each RNA. A mixture obtained by adding MMP-1, MMP-3, Col1a1 and Col3a1 primers and fluorescent dye AccuPower® 2× GreenStar™ qPCR Master Mix (BIONEER, Korea) to the synthesized cDNA was subjected to real-time polymerase chain reaction in a real-time PCR machine.

[4] = test system: BTBR mice; experiment: Social (sniffing) behavior in BTBR developmental disability model; type: in vivo; conditions: oral, after 4 weeks of administration; vs vehicle
Method: In order to verify the efficacy of the peptides of the present invention on developmental disability, BTBR mice (BTBR T^+ltpr3^tf/J (BTBR)), a developmental disability model, were used as an experimental animal.
To 3-week-old male BTBR mice, Amuc_1409 was orally administered by 5 μg daily 5 days a week, and PBS (phosphate-buffered saline) was administered to the control group. PEP001, PEP002, PEP003, PEP004, and PEP005 were each dissolved in PBS buffer at a concentration of 2.4 μM and orally administered to the mice by 150 μL per animal at the same time once a day 5 days a week, and novel tetrapeptides PEP006, PEP007, PEP008, PEP009, and PEP010 and novel tripeptides PEP011 and PEP013 were each dissolved in PBS buffer at 0.2 μg/150 μL and orally administered to the mice by 150 μL per animal at the same time once a day 5 days a week. After 4 weeks of administration, behavioral evaluation was performed by observing the social behavior of the mice. The mice were allowed to freely consume sterilized feed and water in a breeding facility in a specific pathogen free environment where the temperature was maintained at 22° C. to 24° C., and were bred while maintaining a 12-hour day/night cycle.

Row | Molecule | expression of Atrogin-1 [1] | expression of MuRF1 [1] | cognition and memory, novel object recognition test [2] | further results
1 | GAY [PEP005] | significantly decreased | significantly decreased |  | 
2 | AVSSIKGAY (PEP001) |  |  | significantly improved | 
3 | AVS (AVSSIKGAY) [PEP004] | significantly decreased | significantly decreased |  | 
4 | Amuc_1409: SEQ ID NO: 15, functional fragment obtained by eliminating the leader sequence from SEQ ID NO: 14; protein derived from Akkermansia muciniphila (protein, Amuc_1409_fragment, protein derived from Akkermansia muciniphila) IPESSVPAAAVSSIKGAYPNAGPIEWDSEMHGMERIYEAEFRINGFQFDVKIAPDGKIVRIKEEIAASSLPEAVRASVLKRYPGCRIKEAEKITEGELVRYKVEVADSRDDYDVLIAPDGNILHVDR |  |  | significantly improved | expression of Col1a1 gene [3]: significantly increased; expression of Col3a1 gene [3]: significantly increased; expression of MMP-1 gene [3]: significantly decreased; expression of MMP-3 gene [3]: significantly decreased; social behavior (sniffing time and frequency) [4]: significantly increased or tended to increase

From patent US20240209022A1, “NOVEL PEPTIDE HAVING ANTI-INFLAMMATORY AND TISSUE REGENERATIVE ACTIONS” (KOREA RESEARCH INSTITUTE OF BIOSCIENCE AND BIOTECHNOLOGY, priority 2020, published 2024)
